Measured values from paper PMC4121141, “Structural Basis for TatA Oligomerization: An NMR Study of Escherichia coli TatA Dimeric Structure” (PLoS ONE, 2014).
Values belong to the binder of their own block, whether it stands above or below them. Where no end group is shown, it is not given here. The star is where a group is joined. MTSL = 1-oxy-2,2,5,5-tetramethyl-D-pyrroline-3-methyl methanethiosulfonate spin label, CC1(C)C=C(CS*)C(C)(C)N1[O]

B2: TatA_(1–55), truncated E. coli TatA (residues Met1-Gln55) (domain or fragment, Escherichia coli, UniProt P69428 1-55, looked up)
chain: MGGISIWQLLIIAVIVVLLFGTKKLGSIGSDLGASIKGFKKAMSDDEPKQDKTSQ
notes: TatA, Escherichia coli, residues Met1-Gln55; the unstructured C-terminal region removed; 15N-labelled in the relaxation and PRE experiments; source: purified in DPC

Tests used:
[1] = target: the molecule itself; assay: NMR 1H-15N HSQC at decreasing detergent-to-protein ratio; full-length TatA in DPC micelles, 50 mM sodium phosphate pH 7.0, 35°C; DPR lowered from >200; new sets of cross peaks appear
[2] = target: the molecule itself; assay: NMR backbone 15N relaxation (R2/R1); TatA_(1–55) in DPC micelles, DPR ~70, two sets of peaks in the HSQC, 800 MHz, 35°C; monomer to dimer
[3] = target: B2; assay: NMR intermolecular paramagnetic relaxation enhancement (PRE); unlabeled MTSL-tagged TatA_(1–55) cysteine mutant mixed at equal molar ratio with 15N-labeled TatA_(1–55) in DPC, 50 mM sodium phosphate pH 7.0, final DPR 40; reference spectrum after reduction with ascorbic acid; settings: both partners purified
[4] = target: the molecule itself; assay: solution NMR structure (intermolecular NOEs); disulphide-linked d-MCG-TatA of mixed unlabeled and 13C/15N-labeled MCG-TatA (2:1) in dDPC micelles, DPR about 80, 35°C; 13C/15N-filtered NOESY; 139 inter-subunit NOE restraints; Xplor-NIH

B1: Escherichia coli TatA, wild type, full length (natural protein, UniProt P69428 1-89, looked up)
chain: MGGISIWQLLIIAVIVVLLFGTKKLGSIGSDLGASIKGFKKAMSDDEPKQDKTSQDADFTAKTIADKQADTNQEQAKTEDAKRHDKEQV
notes: TatA, Escherichia coli, 89 amino acids, one transmembrane helix (Ile6-Phe20) and one amphipathic helix (Lys24-Met43); 15N- or 13C/15N-labelled for NMR; also called wt-TatA; wild-type TatA; source: in C12E9 with Superdex 200 gel filtration for blue-native PAGE
binding result [1]: binds

Binder: B2
stoichiometry N [2]: 2

stoichiometry N [3]: 2
B3: TatA_(1–55)-I12C-MTSL (domain or fragment, Escherichia coli, UniProt P69428 1-55, looked up)
chain: MGGISIWQLLIC(MTSL)AVIVVLLFGTKKLGSIGSDLGASIKGFKKAMSDDEPKQDKTSQ
notes: TatA, Escherichia coli, residues Met1-Gln55 with Ile12 mutated to cysteine; source: purified in DPC, unlabeled, tagged with MTSL

binding result [3]: binds
B4: TatA_(1–55)-I11C-MTSL (domain or fragment, Escherichia coli, UniProt P69428 1-55, looked up)
chain: MGGISIWQLLC(MTSL)IAVIVVLLFGTKKLGSIGSDLGASIKGFKKAMSDDEPKQDKTSQ
notes: TatA, Escherichia coli, residues Met1-Gln55 with Ile11 mutated to cysteine; source: purified in DPC, unlabeled, tagged with MTSL

B5: MCG-TatA (wild-type E. coli TatA extended at the N-terminus by Met-Cys-Gly) (natural protein, Escherichia coli)
chain: MCGMGGISIWQLLIIAVIVVLLFGTKKLGSIGSDLGASIKGFKKAMSDDEPKQDKTSQDADFTAKTIADKQADTNQEQAKTEDAKRHDKEQV
notes: three additional amino acids Met-Cys-Gly at the N-terminus, numbered M(-3)C(-2)G(-1); TatA, Escherichia coli, wild type, 89 amino acids, Met1 kept after the extension; The single chain of the disulphide-linked dimer d-MCG-TatA; It is used here for the subunit-to-subunit rows of the dimer structure and of the cross-link; source: in C12E9 with Superdex 200 gel filtration for blue-native PAGE; …
binding result [4]: binds
